Molecular target: SARS-CoV-2 omicron突变株假病毒 (SARS-CoV-2 omicron variant)
Test: cell-based or functional assay

Row | Binder | IC50(ng/ml), pseudovirus neutralisation, luciferase reporter [ng/mL]
1 | JS016-40 (antibody, V domains shown) VH: EVQLVESGGGLVQPGGSLRLSCAASGFTVGWNYMSWVRQAPGKGLEWVSVIYPGGTTFYADSVKGRFTISRDNSMNTLFLQMNSLRAEDTAVYYCARVLPMYGDYLDYWGQGTLVTVSS VL: DIVMTQSPSSLSASVGDRVTITCRASQNIERYLNWYQQKPGKAPKLLIYAASSLQSGVPSRFSGSGSGTDFTLTISSLQPEDFATYYCQQSASSTPEYTFGQGTKLEIKR | 24.6
2 | JS016-77-YTE (antibody, V domains shown) VH: EVQLVESGGGLVQPGGSLRLSCAASGFVVQANYMSWVRQAPGKGLEWVSVIYPGGSTFYADSVKGRFTISRDNSMNTLFLQMNSLRAEDTAVYYCARVLPMYGDYLDYWGQGTLVTVSS VL: DIVMTQSPSSLSASVGDRVTITCRASQNILPYLNWYQQKPGKAPKLLIYAASSLQSGVPSRFSGSGSGTDFTLTISSLQPEDFATYYCQQSSSAVPEYTFGQGTKLEIKR | 776
3 | JS016-41-YTE (antibody, V domains shown) VH: EVQLVESGGGLVQPGGSLRLSCAASGFVVQANYMSWVRQAPGKGLEWVSVIYPGGSTFYADSVKGRFTISRDNSMNTLFLQMNSLRAEDTAVYYCARVLPMYGDYLDYWGQGTLVTVSS VL: DIVMTQSPSSLSASVGDRVTITCRASQNIERYLNWYQQKPGKAPKLLIYAASSLQSGVPSRFSGSGSGTDFTLTISSLQPEDFATYYCQQSASSTPEYTFGQGTKLEIKR | 17.6

— patent publication CN115073593A (SHANGHAI JUNSHI BIOSCIENCES CO LTD; JUNMENG BIOSCIENCES CO …, dated 2022)
